# According to patent US20190276540A1:
# Assays:
# [1] = target: NKG2D ligands (NKG2DL) on tumor cell lines; experiment: cell-based or functional assay
# [2] = target: ULBP2-Fc (UniProt Q9BZM5); experiment: cell-based or functional assay
# UniProt Q9BZM5, sequence (Q9BZM5 26-217 limits assumed): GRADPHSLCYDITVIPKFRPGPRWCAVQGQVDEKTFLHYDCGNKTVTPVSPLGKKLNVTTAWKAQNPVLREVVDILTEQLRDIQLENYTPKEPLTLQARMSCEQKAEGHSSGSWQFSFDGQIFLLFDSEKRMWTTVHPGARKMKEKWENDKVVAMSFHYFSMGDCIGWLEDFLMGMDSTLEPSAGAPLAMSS
Substance,"tumor cell lysis, luciferase reporter assay, 24 h co-culture, E:T 1-to-1 [1] [%]","proliferation of CFSE-labelled TFP T cells on plate-bound antigen, three-day culture, flow cytometry [2] [ng/mL]","tumor cell lysis, luciferase reporter assay, 24 h co-culture, E:T 5-to-1 [1] [%]"
dimeric NKG2D-CD3ε TFP (receptor),30 to 50,60,
monomeric NKG2D-CD3ε TFP (receptor),,250,30 to 50
